This data set can be described thus: label from the status in PepcDB records.
Turning to “MSLVNNFTVKKVRSSNLELLRLLSMFFVLVVHADFQALGMPDRTEMTILPLFSVFRIIIEAFAIVCVNSFVLLSGWFGINFHIKSLCNLLFQCAFFLIGIYTFTILIGIEPLSISGIKRCLMLTNNVWFVKCYLGMFIMAPILNAFVEKTDKRTFSTVLLSFFIFQTIYGWFSNGAPYFEKGYSAFSFMGLYLLARYVRIYQPSYTQWSKSKNLLMYISLSTFTALMLIITCYFDKVGYFCMFWTYTSPLVIAGALYLLLFFNRFAFQNKGINWIAASCFAVYLFHFFIWEYFMKPHIQQLAVTYNGISCLLVITGLLLTFFTAAILIDKIRLYIWNHFVSKYIS”, the protein production entry is “failed”.
With “MPCTPDTTSHPCFTEKAAQSCGRVHLPVAPKCNVLCGYCNRKYDCVNESRPGVTSGVLTPAQAADYLDRVLEREPAIRVAGIAGPGDPMANAAATLETLRLIRQRHPDMLFCLSSNGLGMPPHLDALAANGVTHATLTINAVDPDISARLYTWVRDGKVVWRGRPAAELMLERQLTALTGLVQRGIVVKVNTILVPGINDGHVEQVAEKVAALGATLMNIIPLHPTHDTPLAQVAEPSPEAVGEARRLAGAHIRQMTHCRRCRADAVGLLHHDRSRELAPLLRECAQKDDGAGARPFVAVATREGMLVNQHLGEATRLQIWGLGPARSGKGGTTTGGEAASGRNDAKGTGSGDVPGSTGGNSWGKAGATPWDSEEDKNDKRTDSTGSTGGDSGAVCGTTHGTTCGKDATRAGTDATDMPVPVLLEERATPRPGCGPERWHALADMLKDCRAVLTAACGESPRAILREHGITVTECAGIVEDVVGAVLAGLDVNAFRARKGGVSKGCCRGGGDGC”, the protein production entry is listed as “failed”.
Consider “MEMVNAEAKQSVPLLTPYKMGRFNLSHRVVLAPLTRQKSYGSVPQPHAILYYSQRTSPGGFLIAEATGVSDTAQGYPDTPGIWTKEHVEAWKPIVDAVHAKGGIFFCQIWHVGRVSNRGFQPRRQAPISCTGKPIMPQMRANGIDEARFTPPRRLSIEEIPGIVNDFRLAARNAMEAGFDGVEIHGAHGYLIDQFMKDKVNDRTDEYGGSLQNRCKFALEVVDAVAKEIGPDRVGIRLSPFADYMESGDTNPEALGLYMVESLNKYGILYCHMIEPRMKTVGEIAACSHTLMPMREAFKGTFISAGGFTREDGNEAVAKGRTDLVAYGRWFLANPDLPKRFQLDAPLNKYNRSTFYTSDPVVGYTDYPSLESTA”, for which the protein production result is “failed”.
As for “MNEKIVREQRGGEDSPSSVSAKSATAAASASTASMTFASAALESHKTTTITTASSSPRTSGASASASSSSRSASAPASSSSQQEKQPMLNATDMRELREIKQLLWGDNVREDVFKRWSQGFEFSKVEPSALVQKQGGPCAVIAPVQAYLLKIIIMDLPGIKLSEISLDKSQNLLIQALCDILKNCRAPRYRIVHLLRRRGNATEAGSTKKRSPAGEEESALAGQAAGSSEEVEEAAEATPASVSKLSQALQLEHDMHQELSPDEFHERLHTLHFKNIAAVARYYMENYDQLAHTYGVLLFMYSVFLTKGLELVAADISDTSEPLIHSTYGYGGQSLINLMLTGRAVAHVWDNEQDVGGLKLRGICEQSDIGFITLMEEMRYCTVGSFFKNPRYPVWVMGSDTHLTVLFSNEKRLVSPETPSETGRRIFKSYDPEGNNFISTTMLREVLIALNLVSEPAYVALMQKRLDPENLGIILLNAFMDEFFPLESRSTPDTFELMHYNGIPGSNENNKVRYYCGTAILLEGDLKSVCTSNPMVTCLQTKWPNIEINWHDGHMPSLN”, the entry is “failed”.
As for “MTELVQQLALLDALLSNWDGVLVRMGAPDVLRDEALAALAVKLSSAESPDDLDLLLDDLFDLVEDTPAYDYVRGLIARARLDTGTVAKTRGGYAGELVSDDEKSLLFGASRLAGRALGNAVSADVEPCQVEVFFATNRKSSDASDLQFTGEHDAGGYTCGVAHVTIPVGVHRAGVLEGKRWWHLLREKDDSRRYVVLGSVEKLAEDLFTTRIVEGAPECRDLLVFLHGFNVTFEDAARQAAQFAFDLQFQGRVVLYSWPSLGSLAGYCADEERAFLSNGRFAGFLGMLEDGPWDKVHILAHSMGNRVMLYGLSGNSWPNGRISQVVFAAADVYVETFRELFPKIREKAALYTSYTSKKDRALLISGILHKAKRIGISRGEPFVMDGLETIDASKVDNGFPGHGYFAEETKLIEDISQLLGKGLSAGRRKLYQPPSKAYWDFR”, the entry is “failed”.
Turning to “MKPILALLSLLALPVMAAEPTLYGRYENIKVLEIGQTFKAKMDTGALTASLSAKDIELFQRDGDDWVRFRLATKGADDKVYEHKVSRISKIKGRAEGDDEDDEGINPAKRPVVDLELCLGNKKRTVEVNLVDRSHFNFPLLIGAKALREFGAAINPARRYTADEPDC”, the protein production entry is recorded as “not failed”.
As for “MAQQTPLYEQHTLCGARMVDFHGWMMPLHYGSQIDEHHAVRTDAGMFDVSHMTIVDLRGSRTREFLRYLLANDVAKLTKSGKALYSGMLNASGGVIDDLIVYYFTEDFFRLVVNSATREKDLSWITQHAEPFGIEITVRDDLSMIAVQGPNAQAKAATLFNDAQRQAVEGMKPFFGVQAGDLFIATTGYTGEAGYEIALPNEKAADFWRALVEAGVKPCGLGARDTLRLEAGMNLYGQEMDETISPLAANMGWTIAWEPADRDFIGREALEVQREHGTEKLVGLVMTEKGVLRNELPVRFTDAQGNQHEGIITSGTFSPTLGYSIALARVPEGIGETAIVQIRNREMPVKVTKPVFVRNGKAVA”, the entry is “not failed”; as for “MRQVTVGGMRVDLVSEIASLAFDKSWLFANVTDAVIAENRSWLDHRYIEPATGRFILSHHSYLVRAPRWTAIVDTCCGNHKKRPRVPVWNDLNQPYLENMRALGVAPEEVDFVMCTHLHVDHVGWNTRLLDGRWVPTFPNARYLMGREEYRHFEAAHNAAPKSPVNHGSFEDSVLPVVAAGLAEFVETDHRLFEDRDAALRFAPAPGHTAGNMQIHLNGGHDHAVMSGDVIHHPIQCAAPWLSNAADVDPAAAVATRMALLEELADTPSYLLTGHFPAPTAGRVIRHGDTYRFRFED”, “failed”; as for “MASNGHTLRLVINRDKHDSVIRGLYLVTDHDDNLIPRVEAAIDGGARVVQYRNKNQDRESRLALGLELRELCRRRSIPFIVNDDLEMAVSLKADGLHLGQGDGDPREARRVLGPGKIIGVSTHTLSEALEAQAAGVDYIGLGAMFPSRSKEVEHVAGSELLAAIRSSISIPIVAIGGITRDNGASVIDAGADAVAVISAVLSHPDPALAATEIALLFNRRAPFPRGSVLTVAGSDSGGGAGIQADLKTVTLLGSYGSSVLTALTAQNTRGVSGIHGVPPAFVADQLDAVFSDIPVDVVKTGMLFSAETIVAIAAKLTEYRRRMVVVDPVMVAKGGANLIDRGAVSVLKERLFPLAYLVTPNIPEAERLTGANISDEESMREAARRLHRLGARNVLLKGGHLLAGDSVDILFDGAAFHRFVSPRILSKNTHGTGCTFASAIATYLAQGDPLREAIARAKRYITAAIRLAQPLGRGHGPVNHILAAEDVRDR”, “failed”.
The value for “MSTSLTIRLVAEADWPALHALDQIIWTKKNTPAEIQPLSLAAYQEKMKDETIFVAISGQQLAGFIEVHPPTSLAAHQKQWLLSIGVSPDFQDQGIGGSLLSYIKDMAEISGIHKLSLRVMATNQEAIRFYEKHGFVQEAHFKEEFYINGHYCDDYQYAYFIEK” was “not failed”; that for “SKQPTSAENSVAKKEDKVPVKKQKTRTVFSSTQLCVLNDRFQRQKYLSLQQMQELSNILNLSYKQVKTWFQNQRMKSKRWQKNN” was “not failed”.
The value for “MTGALVSSEMMARAAAAAGLSDEADRPGPAPLASPSYLALESASILTDGGVFLKVMHPEMRQDFDLGAAMALARQAGEAGIGPRVLWADPAQGAIAMEALTEAGGWRRAMQVDLQEAPVLGAAMSALKALHATPALSSRFDPFAQIDGLIADYSRLGAPLPEDTGWLRRLIGAAEPVLRTGADLAPCRNDGAASNLMLGPGGAVRLVDYDRAGMNDPLYDVGALLAETTDFEREMQAGFAAYAGAFDEVAFARARLWSFVDDMLHALWSRLKARTSARGGVEWLKYGEWRLMRLRMALNHPQYEQKIRLAGGAA” was “failed”; that for “MHAQTKDLTPIKGIRYYYPPDDAVLVFKDEKERIHYGGMPVPLLEDDFARLDGEPSYDEVGRGVYQALRSNPDCILCDKYAALLRDAYPHYLAELASNAIMIDSKDVEVPYLDRKIACLKVLALLEPQNPALPLEIGRVFLDRGMRLSALHLSTVSIYRAEHFLNRAHTLAPDDRNINRYLGEAYYLLGKYDEAVGFWRKATTTDEPEAERLRERIERISAGNVPLIPPVDYLEAIGAAFACNQTGEYEESIAILQDILMDPVFSEEFPIPEIHCVIGKGFTALDMPKYAEAEFRQALVMDPAHEEARALLATIAAA” was “failed”.
As to “MLNATAFCLAYAGFAALSLGMDRHYEDVFDRALPRRRRLALRSLEWLGLALSLWASAGAWGWNYGTVEWIGILSLAGLLLIWLLTFWPRAALGAGGACALAAPVLALL”, the protein production result was “failed”.
With “MGLTEQKQKHMEQLSDKNGIISALAFDQRGALKRLMAKYQSEEPTVSQIEALKVLVAEELTPYASSMLLDPEYGLPATKVLDDNAGLLLAYEKTGYDTSSTKRLPDCLDIWSAKRIKEEGADAVKFLLYYDVDSSDEVNEEKEAYIERIGSECVAEDIPFFLEILSYDEKITDSSGIEYAKIKPRKVIEAMKVFSNPRFNIDVLKVEVPVNMDYVEGFAQGETAYNKATAAAYFREQDQATLLPYIFLSAGVPAQLFQETLVFAKEAGAKFNGVLCGRATWAGSVKEYVEKGEAGARQWLRTIGFQNIDELNKILQKTATSWKER”, the protein production entry is reported as “not failed”.
As for “MTLTDISLAQAFISIPQDVIALDLSNNLLGSKSCVDLLVNIADCIPAGVTSLDLSSNGLRLTQVSLVTPKHVTSLNLCFNPLHEISIDGLEWLKDSLAHIQIIYLSYDMVNNMSREQRQAFRAVIPNIQTIILVDKNGKEIGPSHTAKIANLISELGGGNPEVPSLEHHHHHH”, the entry is “failed”.
Regarding “AKGKNLIIVQLESFQRNLTNIKIDGQSITPTLDSLQNETMYSNKFFQTVSKSNTADAEWSVYTSTFPSGYYTNTQTYGDRVIPSMPRLLGKNDYTTSTFHTNDASFYNRDEFYPAVGFDKFYDRKFFGDEDVIGFSPSDEVLYNKAFPILEKQYKNNQKFYAQLISVSSHMPFNIPEEKQEINLPSDLKDTELGNYFEAVHYADKQLGAFIQKLKDSGIWEDSVVVFYGDHHIIKTDQLPEEQKKYVNRSTELKADPADDYRIPFFLHYPGMKNPGEIKNVGGEIDIMPTVMNLLGINTGNQIMFGTDILNSTNNYVPERYTMPEGSYFTDSYMYQP”, the protein production entry was “failed”.
The value for “MNKMLYGWLLAACCGLPPAFAGDSVDVLAQPALHGPQALRAVLQDVARADARLVAVGERGVVLLSDDNGATWRQATAVPVGVSLTAVQFIDARNGWAVGHAGVVLHSQDGGEHWSVQLDGKRAAALEVQAAEAAADERRLAAAQRLLADGADKPLLALNFTDARNGLVVGAYGVAMRTDDGGRSWQSEIGRLPNGRGLHLYALARQGNQVYIAGEQGLLLRSRDGGEHYEALHGPYDGSYFAATVLPDGRLLLGGLRGSLFASDDGGDSFQALANPTPASINGLRVAGGQLLLANQAGMLLRSGLGAFAAQPVAVSDGLPLTAATTAADGSIVAVGMAGARRLEPSSLSTTTD” was “failed”; that for “MGHEAKHPIIIGITGNIGSGKSTVAALLRSWGYPVLDLDALAARARENKEEELKRLFPEAVVGGRLDRRALARLVFSDPERLKALEAVVHPEVRRLLMEELSRLEAPLVFLEIPLLFEKGWEGRLHGTLLVAAPLEERVRRVMARSGLSREEVLARERAQMPEEEKRKRATWVLENTGSLEDLERALKAVLAELTGGAKEGRG” was “not failed”; that for “MSLSEPAWSLHSRLKEDTIDIGDLPLSKVLVIKDANYPWLLLVPRRPDAVEIIDLDEVQQAQLMTEISRVSRALKEITKCDKLNIAALGNLVPQLHVHIIARRTGDAAWPRPVWGVMQPLAHDATEVQNFISALRRKIWLGEGHHHHHH” was “not failed”.

Source of the values: a protein production outcome set (Wang et al. 2014).
